The assay deals with T1, PKA-Mcm3 (radiolabeled) (budding yeast, UniProt P24279 1-971, 32P label on the PKA tag (protein kinase A with [gamma-32P]-ATP)).
T1 construct: Mcm3, budding yeast; not shown: PKA tag, N-terminal, kept
Briefly: pull-down; 30 pmol GST-tagged protein on Glutathione Sepharose, varying concentrations of 32P-labelled PKA-tagged protein in solution; GST binding buffer (40 mM Tris–HCl pH 7.5, 100 mM NaCl, 0.1 mM EDTA, 10% glycerol, 0.1% Triton X-100, 1 mM DTT, 0.1 mg/ml BSA), 100 μl, 30°C, 10 min; SDS-PAGE and phosphorimaging; in some panels with 5 mM ATP or ATPγS, or with a third labelled protein (Mcm10, Sld3) added. The settings on record: both partners purified.

T1 sequence (P24279 whole entry): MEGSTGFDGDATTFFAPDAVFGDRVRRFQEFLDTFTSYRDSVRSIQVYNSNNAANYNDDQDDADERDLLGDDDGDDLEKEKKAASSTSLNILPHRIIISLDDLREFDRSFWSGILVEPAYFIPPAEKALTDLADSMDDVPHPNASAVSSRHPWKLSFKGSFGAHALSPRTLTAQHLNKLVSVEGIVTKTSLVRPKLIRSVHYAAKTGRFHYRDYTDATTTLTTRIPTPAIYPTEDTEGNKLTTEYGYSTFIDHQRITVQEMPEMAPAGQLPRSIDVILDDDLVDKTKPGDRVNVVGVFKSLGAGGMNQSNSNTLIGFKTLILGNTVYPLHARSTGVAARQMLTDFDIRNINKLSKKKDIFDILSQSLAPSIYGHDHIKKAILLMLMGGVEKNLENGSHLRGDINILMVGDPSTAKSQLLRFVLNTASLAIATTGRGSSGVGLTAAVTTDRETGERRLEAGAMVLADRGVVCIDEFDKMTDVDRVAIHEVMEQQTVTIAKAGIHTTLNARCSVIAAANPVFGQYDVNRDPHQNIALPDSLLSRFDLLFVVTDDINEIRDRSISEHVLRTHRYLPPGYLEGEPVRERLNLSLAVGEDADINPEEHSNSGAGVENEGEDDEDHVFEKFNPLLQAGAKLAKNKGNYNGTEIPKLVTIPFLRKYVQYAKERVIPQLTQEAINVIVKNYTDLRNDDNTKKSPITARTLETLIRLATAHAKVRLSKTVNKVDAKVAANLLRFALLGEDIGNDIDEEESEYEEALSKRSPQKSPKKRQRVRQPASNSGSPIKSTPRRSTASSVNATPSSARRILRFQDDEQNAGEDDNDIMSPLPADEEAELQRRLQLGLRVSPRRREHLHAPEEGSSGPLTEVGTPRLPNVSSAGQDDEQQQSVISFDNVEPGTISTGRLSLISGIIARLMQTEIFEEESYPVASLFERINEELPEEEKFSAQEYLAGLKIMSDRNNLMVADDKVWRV

B1: GST-Mcm10 (natural protein, budding yeast, UniProt P32354 1-571, looked up)
chain: MNDPREILAVDPYNNITSDEEDEQAIARELEFMERKRQALVERLKRKQEFKKPQDPNFEAIEVPQSPTKNRVKVGSHNATQQGTKFEGSNINEVRLSQLQQQPKPPASTTTYFMEKFQNAKKNEDKQIAKFESMMNARVHTFSTDEKKYVPIITNELESFSNLWVKKRYIPEDDLKRALHEIKILRLGKLFAKIRPPKFQEPEYANWATVGLISHKSDIKFTSSEKPVKFFMFTITDFQHTLDVYIFGKKGVERYYNLRLGDVIAILNPEVLPWRPSGRGNFIKSFNLRISHDFKCILEIGSSRDLGWCPIVNKKTHKKCGSPINISLHKCCDYHREVQFRGTSAKRIELNGGYALGAPTKVDSQPSLYKAKGENGFNIIKGTRKRLSEEEERLKKSSHNFTNSNSAKAFFDEKFQNPDMLANLDNKRRKIIETKKSTALSRELGKIMRRRESSGLEDKSVGERQKMKRTTESALQTGLIQRLGFDPTHGKISQVLKSSVSGSEPKNNLLGKKKTVINDLLHYKKEKVILAPSKNEWFKKRSHREEVWQKHFGSKETKETSDGSASDLEII
notes: Mcm10, budding yeast, full length PCR product in SpeI/XhoI sites of pET-41; source: cloned in pET-41 vector; not shown: GST, N-terminal, kept
In the case of B1, the binding result is “binds”.

For the origin of these results see article PMC4705653, “Mcm10 coordinates the timely assembly and activation of the replication fork helicase” (Nucleic Acids Research, 2015).
